Results taken from patent US6844192 (WAKE FOREST UNIVERSITY, dated 2005).

Experiments:
[1] = biological target: adenovirus E1B-55 kDa protein (Ad5) (UniProt P03243); test: cell-based or functional assay
[2] = biological target: T1, adenovirus E1B-55 kDa protein (Ad5, UniProt P03243 1-496); test: cell-based or functional assay
T1 sequence: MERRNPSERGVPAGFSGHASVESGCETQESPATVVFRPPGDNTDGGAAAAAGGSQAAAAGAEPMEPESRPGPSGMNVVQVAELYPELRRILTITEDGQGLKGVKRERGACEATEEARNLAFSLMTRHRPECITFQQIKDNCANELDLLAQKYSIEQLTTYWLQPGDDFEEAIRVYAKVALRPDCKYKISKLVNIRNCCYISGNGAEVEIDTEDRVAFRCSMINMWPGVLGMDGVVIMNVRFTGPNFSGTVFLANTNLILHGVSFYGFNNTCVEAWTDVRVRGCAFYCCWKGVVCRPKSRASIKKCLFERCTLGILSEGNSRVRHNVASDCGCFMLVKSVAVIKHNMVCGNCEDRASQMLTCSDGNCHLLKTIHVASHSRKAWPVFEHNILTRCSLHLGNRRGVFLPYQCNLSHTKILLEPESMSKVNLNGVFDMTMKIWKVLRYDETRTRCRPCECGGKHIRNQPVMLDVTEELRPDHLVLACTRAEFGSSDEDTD

E4orf6 variant R240E (from UniProt P03239 1-294)
cells with predominantly cytoplasmic E1B-55 kDa protein [1]: 46 % of cells | cells with predominantly nuclear E1B-55 kDa protein [1]: 55 % of cells | cells with uniform distribution of the E1B-55 kDa protein [1]: 4 % of cells

E4orf6 variant R248,251A (from UniProt P03239 1-294)
HeLa cells in which the E1B-55 kDa protein was retained [1]: > 62 % of cells | cells with the E1B-55 kDa protein retained in the nucleus [1]: 82 % of cells | value for nuclear E1B-55 kDa protein retention [1]: 80%

E4orf6 variant R244E (from UniProt P03239 1-294)
cells with predominantly nuclear E1B-55 kDa protein [1]: 85 % of cells | value for nuclear E1B-55 kDa protein retention [1]: 91%

E4orf6 variant R251E (from UniProt P03239 1-294)
cells with predominantly nuclear E1B-55 kDa protein [1]: 85 % of cells

E4orf6 variant R248E (from UniProt P03239 1-294)
cells with predominantly nuclear E1B-55 kDa protein [1]: 85 % of cells

E4orf6 variant R240A (from UniProt P03239 1-294)
cells with the E1B-55 kDa protein retained in the nucleus [1]: 90 % of cells

E4orf6 variant R240,244,251A (from UniProt P03239 1-294)
HeLa cells in which the E1B-55 kDa protein was retained [1]: > 62 % of cells | cells in which the E1B-55 kDa protein was relocalized to the nucleus [1]: 60 % of cells | value for nuclear E1B-55 kDa protein retention [1]: 62%

E4orf6 variant R240,251A (from UniProt P03239 1-294)
cells with the E1B-55 kDa protein retained in the nucleus [1]: 70 % of cells

E4orf6 variant R251A (from UniProt P03239 1-294)
HeLa cells in which the E1B-55 kDa protein was retained [1]: > 62 % of cells | value for nuclear E1B-55 kDa protein retention [1]: 99%

B1: wild-type adenovirus E4orf6 protein (other)
chain: MTTSGVPFGMTLRPTRSRLSRRTPYSRDRLPPFETETRATILEDHPLLPECNTLTMHNVSYVRGLPCSVGFTLIQEWVVPWDMVLTREELVILRKCMHVCLCCANIDIMTSMMIHGYESWALHCHCSSPGSLQCIAGGQVLASWFRMVVDGAMFNQRFIWYREVVNYNMPKEVMFMSSVFMRGRHLIYLRLWYDGHVGSVVPAMSFGYSALHCGILNNIVVLCCSYCADLSEIRVRCCARRTRRLMLRAVRIIAEETTAMLYSCRTERRRQQFIRALLQHHRPILMHDYDSTPM
value for nuclear E1B-55 kDa protein retention [2]: 100%

B2: E4orf6 variant R241A (other)
chain: MTTSGVPFGMTLRPTRSRLSRRTPYSRDRLPPFETETRATILEDHPLLPECNTLTMHNVSYVRGLPCSVGFTLIQEWVVPWDMVLTREELVILRKCMHVCLCCANIDIMTSMMIHGYESWALHCHCSSPGSLQCIAGGQVLASWFRMVVDGAMFNQRFIWYREVVNYNMPKEVMFMSSVFMRGRHLIYLRLWYDGHVGSVVPAMSFGYSALHCGILNNIVVLCCSYCADLSEIRVRCCARATRRLMLRAVRIIAEETTAMLYSCRTERRRQQFIRALLQHHRPILMHDYDSTPM
value for nuclear E1B-55 kDa protein retention [2]: 72%

B3: E4orf6 variant R241E (other)
chain: MTTSGVPFGMTLRPTRSRLSRRTPYSRDRLPPFETETRATILEDHPLLPECNTLTMHNVSYVRGLPCSVGFTLIQEWVVPWDMVLTREELVILRKCMHVCLCCANIDIMTSMMIHGYESWALHCHCSSPGSLQCIAGGQVLASWFRMVVDGAMFNQRFIWYREVVNYNMPKEVMFMSSVFMRGRHLIYLRLWYDGHVGSVVPAMSFGYSALHCGILNNIVVLCCSYCADLSEIRVRCCARETRRLMLRAVRIIAEETTAMLYSCRTERRRQQFIRALLQHHRPILMHDYDSTPM
value for nuclear E1B-55 kDa protein retention [2]: 0.8%
